T1: HPV E6 peptide on HLA-A*11:01 (human)
T1 peptide: TTLEQQYNK

B1: TCR013 (TCR, V domains shown)
Valpha: GQQVMQIPQYQHVQEGEDFTTYCNSSTTLSNIQWYKQRPGGHPVFLIQLVKSGEVKKQKRLTFQFGEAKKNSSLHITATQTTDVGTYFCAGPKITGGGNKLTFGTGTQLKVEL
Vbeta: DSGVTQTPKHLITATGQRVTLRCSPRSGDLSVYWYQQSLDQGLQFLIQYYNGEERAKGNILERFSAQQFPDLHSELNLSSLELGDSALYFCASSVGGGPNYGYTFGSGTRLTVV
B2: TCR028 (TCR, V domains shown)
Valpha: B1 Valpha with K93I, I94L
Vbeta: DSGVTQTPKHLITATGQRVTLRCSPRSGDLSVYWYQQSLDQGLQFLIQYYNGEERAKGNILERFSAQQFPDLHSELNLSSLELGDSALYFCASGLSGPNTGELFFGEGSRLTVL
B3: TCR090 (TCR, V domains shown)
Valpha: B1 Valpha with T81L, K93V, I94L
Vbeta: B2 Vbeta with K9R, H10Y, G94S, L95V, S96G
B4: TCR010 (TCR, V domains shown)
Valpha: AQSVTQLDSHVSVSEGTPVLLRCNYSSSYSPSLFWYVQHPNKGLQLLLKYTSAATLVKGINGFEAEFKKSETSFHLTKPSAHMSDAAEYFCVVSLSGGYNKLIFGAGTRLAVHP
Vbeta: DSGVTQTPKHLITATGQRVTLRCSPRSGDLSVYWYQQSLDQGLQFLIQYYNGEERAKGNILERFSAQQFPDLHSELNLSSLELGDSALYFCASSVTGSGYTFGSGTRLTVV

The text below walks through data of US20250332257A1 (published 2025).

Residue numbers refer to the chain shown, from its start.

The target in this experiment is T1, HPV E6 peptide on HLA-A*11:01. Put plainly: multimer staining.
For B1, the binding result was “recognises”.
In the case of B2, the binding result is given as “recognises”.
With B3, the binding result is “recognises”.
To B4 belongs “recognises”.
